{
  "source": "the DeepSol protein solubility set",
  "data": [
    {"assay": "soluble on expression in E. coli; label from the status in PepcDB or PDB records", "values": [
      {"sequence": "MAHHHHHHMLGACYPIPSGISLSLSRSRAYDVVYHYTRAAHIRLRLHGSGHSGEHMAAAEQRTCRPHLLWRLDGRPHADSIGHGLADDTRLCARVDLRRMLVACPRWGQSRAFIPQSRRLRALPRDGLRACLRGAVLPSGLATVTMVADDTT", "soluble on expression in E. coli": "not soluble"},
      {"sequence": "LAFVGLTIAIVVTETALLFRRYTALKPADLTRLINSENALVVDLSPSSDFEKGHIAGSRSVVESKFDPESNKLLLSAKQSPLVVVCRNGHISAAAAKRLKNAGFEKVYWLDGGIATWKMAEMPLIK", "soluble on expression in E. coli": "not soluble"},
      {"sequence": "AIAAHVRTYNPRVRVGNWKEDVTLEEETSKEFILQKDRGELTVQKEGALKQSILKPVSLSVSQDGFLHFGDTVMLVNCGDGGHMQRSPCVLSIIADSSNVTSHSQTNTGPHLLGPLQVGGAHSMDPCVRNTFIIISVDGSSDGEVVRYDQSFALKTTGGFAGELFLASDHKSFQKCAKKSRLQELSLVEEFDFLCWWKVLYFDPQDRLENEGYPVQVNNKVLISHCKTNQCLAALSNHILWSQFGKEYELTAHTFLDSHKAEQDNNHWLFSTAHPANQSQSLLQLQQEEHKENQEDTQVKDCS", "soluble on expression in E. coli": "soluble"},
      {"sequence": "GPGSMRAVVFSDVASAELREHIRAIASTSYAEVVYVDVSESAEADLATAWHTRYGGASHSPPAARDELDDLKNTFVCYLTEQKTIEDSDVVYAVFVAEVHTLVLTPSVTLTPLMHATADGSVSARKAAIESFFSVAPSSSSAEVIVVEGGDGAGKETQTGLLVRRVHAAGDEVHALDFPNEKGLYGGLVRAVLSGKKGPISELNPQLFSFLYSLNRFGCARQLHFWLRRGSSVVLDRYYTANFGHQASKLPPEEREAFISDLEFMEVEWLGLPRATYVLYLDLPPAVALEAMRQDATRKQLDIHETAGSDYKERVRQTYRWCCEHLPGWHHIECFSDDGRRLTREEVHASITSHLRDAGSRAIGAPS", "soluble on expression in E. coli": "not soluble"},
      {"sequence": "MLSEQKEIAMQVSGMTCAACAARIEKGLKRMPGVTDANVNLATETVNVIYDPAETGTAAIQEKIEKLGYHVVTEKAEFDIEGMTCAACANRIEKRLNKIEGVANAPVNFALETVTVEYNPKEASVSDLKEAVDKLGYKLKLKGEQDSIEGR", "soluble on expression in E. coli": "soluble"},
      {"sequence": "MSLRHDFVFSGVIMLELNAKTTALVVIDLQEGILPFAGGPHTADEVVNRAGKLAAKFRASGQPVFLVRVGWSADYAEALKQPVDAPSPAKVLPENWWQHPAALGATDSDIEIIKRQWGAFYGTDLELQLRRRGIDTIVLCGISTNIGVESTARNAWELGFNLVIAEDACSAASAEQHNNSINHIYPRIARVRSVEEILNALEGGSHHHHHH", "soluble on expression in E. coli": "soluble"},
      {"sequence": "MGSDKIHHHHHHMHIRKYDHDYSRRFFMEQAAKGIATAGVLGPLWPMIANSADITKAYPDELMSIDAWSKGKIKTGDFITAENVDIVKDLLDPVAYQEVKTMGRRIRIVPTTKDVTRMFPHEYLEATLRNQGKAKFDAGGNIVSPDGKPWIGGNPFPDAKTGVEVAANLTLCWGRHDNSIYAIRDWEIAPDGSQSYQYDFAWVEENSVARAQAKSFPGGEDKLRYQAVFFTSPVDVKGTSYLSTWYYDQRKFPDLSGYLPAFKRVRKFPTNQRFEPLVAGVNFYLSDAWASGDPMLTWGNYKIVGRGPMLGAQSQTWYGDHPNWERPVHGGPKGITFFDTNMELCPDVVVFEAEPVGYPRAPVSKKRVWVDTRNMMFVAYVTYDRRGDLFKSFEPQFSLYEKGDKKLMDGSHTAWSWTAVTCHNIQDGRMTRFLQTKSIAGGVSQGYNVEGTFDKYLTEQALQRLGT", "soluble on expression in E. coli": "not soluble"},
      {"sequence": "MRQRKDMPHNRLQTGGMTDEPTDIKAEAKPARTSDLRGFIRLLEERGQLRRIRQPVSLVHEITEIHRRVLADGGPALLFEQPVDHEGKVRKMPLLANLFGTRQRIEWGLGLETGGLPALGQKLTELREPRPPKSMAEAWSKLPLLRAALSMRQRNVSRAPVQEKVLTRDAVDLARLPVQWCWPGEPAPLITWPLVITRSPDDPDDINVGIYRMQVLGPDRVIMRWLAHRGGAHHHRLWQARGLDMPVTVAIGADPATILAAVMPLPDHISELGFSGLLRGAKSRIAKALTVPMPVPANAEIVLEGTVSATETAMEGPYGDHTGYYNSVEAFPVMTLSAITMRRDPIYLSTYTGRPPDEPSVLGEAMLEIFLPLVKRQFAEIVDLWMPPEACSYRVMVASIDKRYPGQAKRVMMGLWSMLPQFSYVKLIILVDPDIDVRSWTDVVWALSTRFDASRDTTIINDTPIDYLDFASPKAGLGGKMGLDATRKLPPETEREWGRVLSMTPDVVAKVDLVWRDLGLGERPVDKLAAALEHHHHHH", "soluble on expression in E. coli": "not soluble"},
      {"sequence": "MAHHHHHHMATISRRDGRTAREMRGKELRTSDLSQFDGSAWYSQGLTAVTVAINGPTAARQENYRRCTTCIHVNRAARIPQEGGTGRLIMMERRERERCEDGELKQFLTSLVEAIVCLDRFPRCVLEAHVTVLMDDGALFAVASNAIMCALLDAGVPCRSTIAAVSLIMCNPEASGNEGEPEIFLDPTAVEESTDEVRSYASATFVLTNTGGEAVLASRVQARPRSSAYSRPITPKDLSRMFALAAKAAETLFVFFRNCSMALE", "soluble on expression in E. coli": "not soluble"},
      {"sequence": "MSAFSAINEEREIERDEFTPGIEPQATWCPGCGDFGVLKALKQAMPEVGKNPDEVALFTGIGCSGKLNSYFNSYGFHTIHGRSLPVARAAKLANPNLEVIAAGGDGDGYGIGGNHTIHTARENHDMTYIVFNNEIFGLTKGQTSPTSPKGHKSKTQPHGSAKSPIRPLSQQLNAGATYIARTAAVNPNQAKEIIAEAIEHDGFAHIDFLTQCPTWNKDAKHYVPYTDVQQSDEFDFDVSDRAEAAEMMRKTEERLYEGEVLTGRMYIEDERPSYGEEKRQIGEMPEEPLAERYFDEDAEWERTYDNLLEHHK", "soluble on expression in E. coli": "not soluble"},
      {"sequence": "MSLELLIPQLEFLNEEGAQAEVWALSRIFLDTLVKETGQKVKAIFPDAGAAALLKYQWTDAEFKCASLSDRKPVDVEDEVVVMIIPDHQMVESVERIASQLSDDPIRPLVMWNPRLVSGDVGVGFNVRNLRRNFLSTFTTVYSMRPLPTGAVFRQYPGKWKVFYDDPKRPNRYLLARELVSRPDATDIEIIFGGGDEQSDEAPSLMNNVMGVFSSVSRFMRVISKEGHHHHHH", "soluble on expression in E. coli": "not soluble"},
      {"sequence": "SLAFEPPRRLVRAFGETAPEGDDWLATLPEVAERAVARRGLTVERVQVPGGRSSLVVLVRTAEGAPAVLKLAPRRARPESERAALVHWGGRGAVQVREEGDEEGVLLLERLHPDVSVRSLPEAKALLEAAGTLRRLWVEPPGSHPFETVAERTGRQAEAMRAGAAADAQVAPLVDAALAARAELLGGPSEQRLLHGTFRQSKVLAGDRMPWLAVGPDPVVGESAFDLARLVRDRVEDLIAQPSGASTTRRRIKRLAESLEVDQERLRGWTLFRAVESGVRARRVGRERDAELLLEFAGWL", "soluble on expression in E. coli": "soluble"},
      {"sequence": "MAHHHHHHMEVEGTKERARGVTTFTRADLELREAAEDHRALLAEPWASHALRKGYSGREEHTKWITETWEAFERRKEDQKLYLERHDLCLQYKAAQLSETRRLSEQKSAALVEKMMALEAARKGALLQSRHFLFVDYYDYQQFLFRNQRSFVEDEEKLLRCKLSETEDDLMCLLVIQWHLSSHLHAAREKERVEEEAAAERLREFQYRQKLEEERLREEQRIAQEKEASQAEKEQAELEKRLERKRRDAERRAKVRAEREQRRAQE", "soluble on expression in E. coli": "not soluble"},
      {"sequence": "MGSDKIHHHHHHMPHSVPPLTDIGPLPTASTVRTVVFSDFDETYLAHSGTPEQVRSRQALENYLEDAGERHGLLFGWVTGSSLSSVLGKARRHGLRFLPHFIACSLGTELHVISEAGIQPEPGWQRRMLTTGEHLEGLAEEAFRELRTRGVPLVPQSCRAPGSRVISYYYFAQDPERDARQLALIRRTADRLSLGVNLSRCNPAAGDPDDCYDVDFLPRDCGKRHIVEYICRLYAVSEADAFAFGDSGNDLEMLTAVGRGLLVGNCTEEARARYPQVSARSHADAILSELRGVLP", "soluble on expression in E. coli": "not soluble"},
      {"sequence": "SSEAKKGHVLFFPYPLQGHINPMIQLAKRLSKKGITSTLIIASKDHREPYTSDDYSITVHTIHDGFFPHEHPHAKFVDLDRFHNSTSRSLTDFISSAKLSDNPPKALIYDPFMPFALDIAKDLDLYVVAYFTQPWLASLVYYHINEGTYDVPVDRHENPTLASFPGFPLLSQDDLPSFACEKGSYPLLHEFVVRQFSNLLQADCILCNTFDQLEPKVVKWMNDQWPVKNIGPVVPSKFLDNRLPEDKDYELENSKTEPDESVLKWLGNRPAKSVVYVAFGTLVALSEKQMKEIAMAISQTGYHFLWSVRESERSKLPSGFIEEAEEKDSGLVAKWVPQLEVLAHESIGCFVSHCGWNSTLEALCLGVPMVGVPQWTDQPTNAKFIEDVWKIGVRVRTDGEGLSSKEEIARCIVEVMEGERGKEIRKNVEKLKVLAREAISEGGSSDKKIDEFVALLT", "soluble on expression in E. coli": "soluble"},
      {"sequence": "MAHHHHHHMQSQQHHYTASPTASPALSRAGVSSTPVLILDLGSRTIKSGLHTATTPHLTPALVGTPKYPRCLPQVSSSFNQSSSISTSCFVVGSDAASRRGVLRLSRPIQHGGVIMDWVGTRPLLRQSIQNALVPPSSSLAVRQPLEEGEDVIYSLVESPYASRPQRARLAELLFEGPDQEAVMSDSGKQQRVGPRAAGVFCGVGPLLALYATGQTTGVVVDVGDGAVSTAAAADGYVLPQCLQREADGATGAAVTSYLTRLLYQSGVLGPAAATAAFRRSAPPSLLGSATNHLSSGAGAGTQQERELVYALKEACCSVSATPLFSTKSSLAAADASTAATPSLAELNSALIAAAQRTQHSGPGGSGAAHASTPFSHPFTLPDGSFLEVGGAEAAQASEVLFYPALMGSEGRGVVDVVLDAVAAAPAELQPQLLGNVVVTGGVTCSAGFGYRFFNEMQQRIRGCAASSTNGSSNQRICVSAPEQRAYAAWMGASYVAQISSFASSMVVTRAAYEEEGEAALARRVLT", "soluble on expression in E. coli": "not soluble"},
      {"sequence": "MPEKKSLLEVPPELVFSGPFDHVITTYMTLTNISQSPVCFLVKTTVPNSYCVRPNRGILNIGDSKQIEVMLQPLEKVPPDAKQHKFLVQSCVAPSIDVSDLESVWKNVKPDELTYNRLVVTFVDNTDSKSNIECEICTLEFSSVVDNQIPRILQCGHSICQSCASKLAKNCVILCPFCRNETNVSSVASLPKNFALLQAIDQKTLRVPPLEIAKLRQQLSCQLSKLEEQVSKTDKSIKAVGRAQLSNLKDGREFQERKDSIVSYYASIRETINALENEAIGKLHTIADMNVSKNALLVAELSEILKHQNLKIAELKLSMEMDDVELATRSLTDSGTECAVVKPAVLDVALTFPEIDKMALLSMTTKFPSNFSTV", "soluble on expression in E. coli": "not soluble"},
      {"sequence": "MSLSTIGSMMSIYSEAGDFGNIFVTGRIAFSLKYEQQTQSLVVHVKECHQLAYADEAKKRSNPYVKTYLLPDKSRQGKRKTSIKRDTVNPLYDETLRYEIPESLLAQRTLQFSVWHHGRFGRNTFLGEAEIQMDSWKLDKKLDHCLPLHGKISAESPTGLPSHKGELVVSLKYIPASKTPVGGDRKKSKGGEGGELQVWIKEAKNLTAAKAGGTSDSFVKGYLLPMRNKASKRKTPVMKKTLNPHYNHTFVYNGVRLEDLQHMCLELTVWDREPLASNDFLGGVRLGVGTGISNGEVVDWMDSTGEEVSLWQKMRQYEGHHHHHH", "soluble on expression in E. coli": "not soluble"},
      {"sequence": "MGSDKIHHHHHHMCRWLAYTGNPLQLETVLFNARHSLIDQSLHSRLGYTTTNGDGFGIGWYGEPTDIPFRYRCIQPAWSDRNLREAARAIRAPLFVAHVRSATDTPSQETNCHPFRHGRWLFAHNGLIRNYPAVRRDLMVMIDPDLFPSIEGSTDSEVMFFLALTFGLELAPVTALERMVAFVEETGRKHGVDEPLNMTVCVTDGEQIVAVRYSSEGQSRSLFHSTSFHHLHELYPDDPRIAAAGENAFLVLSEPLADLPGWWEEIPESTVVVARGGQIEQYPFRPQSA", "soluble on expression in E. coli": "not soluble"},
      {"sequence": "MIKIELKNKDNQIITGRIDHEKPEAPFVAEGDTLAVLAIKQYLYQVGDKIVVTYTGATPYLMVQLDETLAPSLIYLKEKVWEYQIPLEESARKAFVDTAFHSARHQIMVRQAHTFEKDNYQNLSMNTHDQKEYSGAYPHAYANVETRDDAVFFAKNAIDSKFGNLSHGSYPFASWGINQKKEAQLTIDFGRPVETDWIRLLFRADYPHDSYWEEVTLAFSDGEERVVATTNTTCFQEIKFPMKTTQTLTLKCLRKALDSSPFPALTQIEVFGRNK", "soluble on expression in E. coli": "soluble"}
    ]}
  ]
}
